In US20250066477A1 (INHIBRX BIOSCIENCES, published 2025):

Columns and labels:
CD20 on Raji cells = target: T1, CD20 on Raji cells (UniProt P11836 1-297, limits assumed); assay: flow cytometry on CD20-expressing Raji cells, anti-human Fcγ A647
T1 construct: whole, on cells
T1 sequence (looked up): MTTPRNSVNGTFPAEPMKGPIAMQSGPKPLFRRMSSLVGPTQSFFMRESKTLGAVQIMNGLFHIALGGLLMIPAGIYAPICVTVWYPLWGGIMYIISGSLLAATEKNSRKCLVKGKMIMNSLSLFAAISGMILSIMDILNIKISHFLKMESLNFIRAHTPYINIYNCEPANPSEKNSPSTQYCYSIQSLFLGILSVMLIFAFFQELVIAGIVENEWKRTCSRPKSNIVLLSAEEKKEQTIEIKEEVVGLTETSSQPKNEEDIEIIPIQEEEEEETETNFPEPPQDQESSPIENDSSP
Method: (§1) The binding activity of a bispecific γδ TCR molecule that binds γδTCR and the representative target antigen CD20 (γδTCR×CD20) comprising anti-γδ VHH domain 1D7v9, an anti-CD20 VHH domain and a heterodimeric knob-in-hole Fc region (cx11498) was assessed by flow cytometry on Raji target cells expressing CD20 and Vγ9Vδ2 T cells. PBMCs and Raji cells were thawed and resuspended to 1.0×10\hat{ }6 cells/ml in FACS buffer. 100,000 PBMCs or Raji cells were seeded in a 96-well plate. Test articles were added at a final starting concentration of 50 nM and titrated across the plate 1:4. Cells were incubated with the antibody for 30 minutes at 4 C, spun down, and washed four times with FACS buffer. Cells were labeled with anti-human Fcγ-A647 (Jackson ImmunoResearch) and PBMCs were also labeled with anti-human δ TCR-FITC (Biolegend) in 50 uL of FACS for 30 minutes at 4 C. The plate was washed twice with FACS buffer, resuspended in FACS buffer and read on the IQue flow cytometer. The mean fluorescent intensity for anti-human Fcγ-A647 was calculated using onboard software and graphed using Graphpad Prism. The γδ TCR×antigen molecule bound to both antigen (CD20) expressing Raji cells (FIG. 7A) and V 9Vδ2 T cells (FIG. 7B) in a titration dependent manner.

[1] = target: T2, human γδ TCR (Vγ9Vδ2) on human γδ T cells (human); assay: flow cytometry on human PBMC gated on γδ TCR+ (Vγ9Vδ2) T cells, anti-human Fcγ A647
T2 construct: whole, on cells; also called Vδ2+ γδ T cells; Vγ9Vδ2 T cells
T2 sequence (main, as listed by the source): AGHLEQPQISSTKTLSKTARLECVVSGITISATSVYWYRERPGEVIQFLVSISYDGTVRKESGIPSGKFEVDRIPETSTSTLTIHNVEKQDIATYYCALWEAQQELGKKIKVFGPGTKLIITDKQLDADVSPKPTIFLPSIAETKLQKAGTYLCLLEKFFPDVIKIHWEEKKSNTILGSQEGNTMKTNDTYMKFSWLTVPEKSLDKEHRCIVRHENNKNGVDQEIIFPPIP
Method: as §1

[2] = target: T3, CD33 on MOLM-13 and MV-411 cells (UniProt P20138 18-364, limits assumed); assay: flow cytometry on CD33-expressing MOLM-13 cells, anti-human A647
T3 construct: whole, on cells
T3 sequence (P20138 18-364 limits assumed): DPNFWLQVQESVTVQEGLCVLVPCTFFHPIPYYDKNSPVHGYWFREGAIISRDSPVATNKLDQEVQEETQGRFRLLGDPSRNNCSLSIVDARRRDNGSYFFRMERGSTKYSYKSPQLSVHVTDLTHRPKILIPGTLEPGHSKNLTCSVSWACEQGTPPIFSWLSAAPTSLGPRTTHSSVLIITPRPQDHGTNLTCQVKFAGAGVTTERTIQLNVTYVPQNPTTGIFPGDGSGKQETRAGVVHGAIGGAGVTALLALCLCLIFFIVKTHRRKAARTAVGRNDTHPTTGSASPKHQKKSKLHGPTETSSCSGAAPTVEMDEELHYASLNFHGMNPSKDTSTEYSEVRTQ
Method: (§2) A monospecific CD33 construct comprising an irrelevant second VHH domain instead of a γδTCR VHH domain (CD33×UT; cx12056) was also tested. Briefly, frozen PCMCs (previously treated with zoledronate to expand γδ T cells) were thawed and washed twice using 1×CTL thawing reagent in assay media. Cells were resuspended to 1×10\hat{ }6 cells/mL in FACs buffer and plated on a 96 well plate (100,000 cells/well). The test articles were added in 50 uL to each well at 4× the final starting concentration of 200 nM and titrated 1:4 across. 50 uL of FACS buffer was added for the final total volume of 200 uL. Cells were incubated with the test article at 4 C for 30 minutes, washed three times, and stained with Vd2-PE, CD3-BV785, and anti-human-A647 antibodies in FACS buffer for 30 minutes at 4 C. The cells were then washed 2× with FACS buffer, resuspended in 70 ul of FACS buffer and read on a Novocyte. All the molecules bound to CD33 expressing MOLM-13 (FIG. 8A) and MV4-11 (FIG. 8B) cells in a titration dependent manner. However, only the bispecific γδTCR×CD33 molecule bound to V 9Vδ2 T cells (FIG. 8C) in a titration dependent manner.

[3] = target: T2, human γδ TCR (Vγ9Vδ2) on human γδ T …; assay: flow cytometry on zoledronate-expanded human PBMC gated on Vδ2+ cells, anti-human A647
Method: as §2

B1: cx11498, γδTCR×CD20 bispecific polypeptide (1D7v9 VHH-Fc hole / anti-CD20 VHH-Fc knob) (bispecific antibody, V domains shown)
V domain 1: EVQLLESGGGEVQPGGSLRLSCVASRGKISQYRMGWYRQAPGKELEWVAHISNTGDAAEYVDSVKGRFTISRDSTKNAVYLQMSSLRAEDTAVYKCNSVEDILAWGQGTLVTVKP
V domain 2: QVQLQESGGGLVQPGGSLRLSCAASGRTFSMGWFRQAPRKEREFVAAITYSGGSPYYASSVRGRFTISRDNAKNTVYLQMNSLKPEDTAVYYCAARLTYGSTWSAENWGQGTQVTVKP
notes: also called γδ TCRxCD20; anti-CD20×Vγ9-1D7v9
- EC50 (read off the curve) (CD20 on Raji cells): ~5 nM
- EC50 (read off the curve) [1]: ~2 nM

B2: cx12083, γδTCR×CD33 bispecific polypeptide (anti-CD33 VHH-Fc knob / 1D7v9 VHH-Fc hole) (bispecific antibody, V domains shown)
V domain 1: EVQLVESGGGEVQPGGSLRLSCAASRSSGIDVMGWYRQAPGKERELVAEISGVGDTNYAASLADRFTVSRDNAKNTVYLQMSSLRAEDTAVYYCNAHSFLDLVGAWGQGTLVTVKP
V domain 2: EVQLLESGGGEVQPGGSLRLSCVASRGKISQYRMGWYRQAPGKELEWVAHISNTGDAAEYVDSVKGRFTISRDSTKNAVYLQMSSLRAEDTAVYKCNSVEDILAWGQGTLVTVKP
notes: also called γδ TCRxCD33; CD33×1D7v9
- binding result [2]: binds
- EC50 (read off the curve) [3]: ~20 nM

B3: cx12056, CD33×UT (untargeted) monospecific CD33 construct (anti-CD33 VHH-Fc knob / 4GFTv1 VHH-Fc hole) (Fc fusion)
chain 1: EVQLVESGGGEVQPGGSLRLSCAASRSSGIDVMGWYRQAPGKERELVAEISGVGDTNYAASLADRFTVSRDNAKNTVYLQMSSLRAEDTAVYYCNAHSFLDLVGAWGQGTLVTVKPGGGGDKTHTCPPCPAPGGPSVFLFPPKPKDTLMISRTPEVTCVVVDVSHEDPEVKFNWYVDGVEVHNAKTKPREEQYNSTYRVVSVLTVLHQDWLNGKEYKCKVSNKALPAPIEKTISKAKGQPREPQVYTLPPCRDELTKNQVSLWCLVKGFYPSDIAVEWESNGQPENNYKTTPPVLDSDGSFFLYSKLTVDKSRWQQGNVFSCSVMHEALHNHYTQKSLSLSPGK
chain 2: EVQLVESGGGEVQPGGSLRLSCSAAPERAFSNYAMGWFRQAPGKGREFVAGITGSGRSQYYAESVKGRFTISRDNAKNTLYLQMSSLRAEDTAVYYCAARVVPVFSESTKGYVYWGQGTLVTVKPGGGGDKTHTCPPCPAPGGPSVFLFPPKPKDTLMISRTPEVTCVVVDVSHEDPEVKFNWYVDGVEVHNAKTKPREEQYNSTYRVVSVLTVLHQDWLNGKEYKCKVSNKALPAPIEKTISKAKGQPREPQVCTLPPSRDELTKNQVSLSCAVKGFYPSDIAVEWESNGQPENNYKTTPPVLDSDGSFFLVSKLTVDKSRWQQGNVFSCSVMHEALHNRYTQKSLSLSPGK
notes: also called CD33 x UT
- binding result [2]: binds
